Data from paper PMC7040040.

Assays:
[1] = target: humanized PBD-C06 with A97 of the VH framework substituted by murine T97 (human); assay: SPR; Biacore 3000; antibody captured on a CM5 chip via immobilised anti-mouse or anti-human antibody; monomeric Aβ peptides injected (240 µl, 30 µl/min), running buffer HBS-EP; 1:1 Langmuir binding model
[2] = target: humanized PBD-C06 (CDR-grafted IgG1:kappa version) (human); assay: as above
Chain of humanized PBD-C06 (CDR-grafted IgG1:kappa version) (human) (heavy, as listed by the source, chain 1 of 2): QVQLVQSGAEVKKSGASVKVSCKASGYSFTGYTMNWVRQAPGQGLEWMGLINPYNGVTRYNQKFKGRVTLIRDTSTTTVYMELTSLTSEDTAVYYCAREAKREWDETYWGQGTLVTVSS
Chain of humanized PBD-C06 (CDR-grafted IgG1:kappa version) (human) (light, as listed by the source, chain 2 of 2): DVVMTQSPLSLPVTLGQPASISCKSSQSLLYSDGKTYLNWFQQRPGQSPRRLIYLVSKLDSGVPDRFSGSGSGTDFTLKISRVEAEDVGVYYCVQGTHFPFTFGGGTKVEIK

Chain of humanized PBD-C06 with A97 of the VH framework substituted by murine T97 (human) (heavy, as listed by the source, chain 1 of 2): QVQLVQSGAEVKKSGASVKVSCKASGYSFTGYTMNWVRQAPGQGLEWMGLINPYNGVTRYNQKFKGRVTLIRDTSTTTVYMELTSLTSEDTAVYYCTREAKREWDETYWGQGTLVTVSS
Chain of humanized PBD-C06 with A97 of the VH framework substituted by murine T97 (human) (light, as listed by the source, chain 2 of 2): as the sequence (light, as listed by the source, chain 2 of 2) above

With pE3-Aβ(3–18) monomer (peptide) as the substance, how does the Kd [1] read?
The Kd was 5.3 nM.

What about the Kd [2] of the same substance?
The Kd was 43.5 nM.
